# Assay results: patent US20170096487A1 (VENTANA MEDICAL SYSTEMS, published 2017)
# Key:
# HER4 = target: T1, HER4 (UniProt Q15303 26-1308, limits assumed); test: IHC on FFPE transfected HEK293 cells, Ventana Benchmark XT
# T1 construct: whole, on cells
# Procedure: (§1) The suitability of the newly developed HER3 monoclonal antibodies MAK<humanHER3> M-7.2.42 and MAK<humanHER3> M-7.3.8 was shown using FFPE cell line controls. Therefore HER1, HER2, HER3 or HER4 transfected or untransfected HEK293 cells, respectively, were fixed with 4% PBS buffered formaldehyde and were subsequently embedded in paraffin.
# (§2) All staining procedures were performed on the Ventana Benchmark XT automated IHC stainer using Ventana buffers and reagents, i.e., amongst others, the standard cell conditioning 1 (CC1) reagent for sample preparation and ultraView DAB as detection system.
# (§3) As obvious from FIG. 3 the newly developed HER3 monoclonal antibodies MAK<humanHER3> M-7.2.42 and MAK<humanHER3> M-7.3.8 show specific membrane staining only on HER3 transfected cells. HER1, HER2 and HER4-transfected cells and control cells are negative. HER3 monoclonal antibodies MAK<humanHER3> M-7.2.42 and MAK<humanHER3> M-7.3.8 show good IHC-staining with HER3 transfected cells if used according to standard protocols on the Ventana Benchmark XT analyzer (see FIG. 3, HER3 captioned cell staining).
# HER2 = target: T2, HER2 (UniProt P04626 23-1255, limits assumed); test: as above
# T2 construct: whole, on cells
# Procedure: as §1, §2, §3
# [1] = target: T3, biotinylated HER3 peptide (screening peptide with a sequence corresponding to the immunogen); test: Biacore A100 SPR, antibody captured from hybridoma supernatant on anti-mouse Fc, streptavidin-grafted biotinylated HER3 peptide as analyte, 25 C
# T3 construct: Synthetic peptide of HER3; also called HER3 antigen peptide; peptide-graft
# Procedure: For selection of suitable antibodies, a kinetic screening was performed on hybridoma culture supernatants. The measurements were done using Biacore SPR technology. The CM5 series S sensor chip was mounted into an A100 instrument (GE Healthcare, Biacore) and was hydrodynamically addressed in HBSN buffer (10 mM HEPES pH 7.4, 150 mM NaCl) according to the manufacturer's instructions. The system buffer was HBS-ET (10 mM HEPES pH 7.4, 150 mM NaCl, 0.05% TWEEN 20). The sample buffer was the system buffer supplemented with 1 mg/ml CMD (Carboxymethyldextrane, Sigma #86524). The system was driven at 25° C.
# 10000 RU RAMIgGFC (relative units of rabbit-anti-mouse F(c)gamma-fragment of the respective mouse immunoglobulin G subclass/Jackson Laboratories) were immobilized according to the manufacturer's instructions using EDC/NHS chemistry on the flow cells FC1 (anti-mouse F(c)gamma of subclass 1), FC2, FC3 and FC4, respectively, on the sensitive spots 1, 2, 4 and 5 on each flow cell. The spots were deactivated using 1M ethanolamine.
# The binding activity of antibodies against the HER3 peptide was kinetically tested. Antibodies were captured by a 1 min injection at 10 μl/min of crude hybridoma supernatants diluted 1:3 in sample buffer. Biotinylated Her-3 peptides were carefully singly grafted on streptavidin to enlarge the molecular weight of the complexes and to increase the mass sensitivity of the system. Since the antigen complex dissociation kd is independent of the analyte injection concentration, this is a legal method to increase the sensitivity of the system.
# HER1 [2] = target: T4, HER1 (UniProt P00533 25-1210, limits assumed); test: Western blot on lysates of transfected HEK293 cells, RT and 37 C
# T4 construct: whole, on cells; also called EGFR
# Procedure: Lysates were prepared from several HEK293 control cell lines. The cells were transiently transfected with plasmids coding for HER1, HER2, HER3 or HER4. HEK293 cells transfected with the mammalian expression vector pRK5 were used as negative control. For western blotting 10 μg protein lysates were loaded per lane on 4-12% NuPage SDS gels (Invitrogen). Western blotting was performed according to standard protocols with standard NuPage buffers and reagents (Invitrogen). After blocking the membrane was incubated with MAK<humanHER3> M-7.2.42, MAK<humanHER3> M-7.3.8 or the HER3 monoclonal antibody DAK-H3-IC from Dako. MAK<humanHER3> M-7.2.42 and MAK<humanHER3> M-7.3.8 were used at a concentration of lng/ml. Primary antibody incubation was performed for 60 min at RT and at 37° C. HRP-conjugated anti-mouse Fab was used as secondary antibody. The dilution of DAK-H3-IC antibody was made as recommended by its manufacturer and the choice of secondary (detection) antibody was adapted as required. The membrane was developed with ECL (Amersham) and exposed to an x-ray film.
# HER1 [3] = target: T4, HER1; test: IHC on FFPE transfected HEK293 cells, Ventana Benchmark XT
# Procedure: as §1, §2, §3
# T1 sequence (Q15303 26-1308 limits assumed): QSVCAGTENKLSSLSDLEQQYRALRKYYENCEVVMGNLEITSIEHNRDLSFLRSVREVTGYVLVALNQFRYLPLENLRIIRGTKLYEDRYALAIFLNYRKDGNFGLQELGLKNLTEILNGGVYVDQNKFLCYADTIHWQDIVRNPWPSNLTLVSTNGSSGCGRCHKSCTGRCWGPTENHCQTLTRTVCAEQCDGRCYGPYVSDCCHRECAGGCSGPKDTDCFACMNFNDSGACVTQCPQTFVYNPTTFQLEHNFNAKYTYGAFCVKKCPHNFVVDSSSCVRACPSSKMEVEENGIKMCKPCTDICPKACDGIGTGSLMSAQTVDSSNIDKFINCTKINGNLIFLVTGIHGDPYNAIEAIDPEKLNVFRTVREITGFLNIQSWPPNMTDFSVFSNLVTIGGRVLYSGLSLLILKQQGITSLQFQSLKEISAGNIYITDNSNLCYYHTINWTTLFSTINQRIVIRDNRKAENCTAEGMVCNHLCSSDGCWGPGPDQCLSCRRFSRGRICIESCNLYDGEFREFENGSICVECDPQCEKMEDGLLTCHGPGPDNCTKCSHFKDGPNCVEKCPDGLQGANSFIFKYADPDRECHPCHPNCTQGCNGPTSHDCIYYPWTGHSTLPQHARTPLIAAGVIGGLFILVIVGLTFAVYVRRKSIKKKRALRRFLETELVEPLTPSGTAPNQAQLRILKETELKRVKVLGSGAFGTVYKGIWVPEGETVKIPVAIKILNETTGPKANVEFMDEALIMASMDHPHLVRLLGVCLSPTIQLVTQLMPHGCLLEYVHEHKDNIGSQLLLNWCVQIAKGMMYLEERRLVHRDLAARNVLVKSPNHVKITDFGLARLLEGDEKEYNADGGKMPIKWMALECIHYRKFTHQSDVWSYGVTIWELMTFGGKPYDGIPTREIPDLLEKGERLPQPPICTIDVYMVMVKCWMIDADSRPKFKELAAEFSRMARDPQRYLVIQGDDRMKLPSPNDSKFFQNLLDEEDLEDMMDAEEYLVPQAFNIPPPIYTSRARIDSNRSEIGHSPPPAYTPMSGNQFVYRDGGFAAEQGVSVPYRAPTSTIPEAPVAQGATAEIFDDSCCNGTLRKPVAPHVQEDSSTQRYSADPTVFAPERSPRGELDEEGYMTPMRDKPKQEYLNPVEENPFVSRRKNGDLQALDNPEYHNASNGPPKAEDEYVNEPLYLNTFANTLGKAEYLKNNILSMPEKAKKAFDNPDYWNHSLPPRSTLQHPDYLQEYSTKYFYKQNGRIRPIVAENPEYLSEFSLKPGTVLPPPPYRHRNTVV
Binder,binding result (HER4),binding result (HER2),koff [1],t½ diss [1],binding result (HER1 [2]),binding result (HER1 [3])
"MAK<humanHER3> M-7.2.42 (antibody, V domains shown, Tested as crude hybridoma supernatant in the Biacore screening; also called HER3 monoclonal antibody MAK<humanHER3> M-7.2.42) VH: EVQLLQSGPELVKPGASVKMSCKASGYTFTDYNLHWVKQSHGRTLEWIGYFNPYNGGTFYTQKFKDKATLTINKSSSTAYMELRSLTSEDSAVYYCTRRYFDGSSYFDYWGQGTTLTVSS VL: DVLMTQTPLSLPVSLGDQASISCRSSQTIVHSNGNTYLEWYVQKPGQSLKLLIYKVSNRFSGVPDRFSGSGSGTDFTLKISRVEAEDLGVYYCFQGSHVPRAFGGGTKLEIKR",no binding,no binding,4.26e-05 s⁻¹,4.52 h,no binding (tested: lng/ml (so in the source)),–
"MAK<humanHER3> M-7.3.8 (antibody, V domains shown, Tested as crude hybridoma supernatant in the Biacore screening; also called antibody 7.3.8; HER3 monoclonal antibody MAK<humanHER3> M-7.3.8) VH: EVQLQQSGPELAKPGASVKMSCKASGYTFTDYNLHWVKQSHGKTLEWIGYFNTYNGGIFYTQKFKDKATLTINKSSSTAYMELRSLTSEDSAVYYCTRRYFDGSSYFDYWGRGTTLTVSS VL: DVLMTQIPLSLPVSLGDQASISCRSSQSIVHSNGNTYLEWYVQKPGQSPKLLIYKVSNRFSGVPDRFSGSGSGTDFTLKISRVEAEDLGVYYCFQGSHAPRTFGGGTKLEIKR",no binding,no binding,2.66e-05 s⁻¹,7.25 h,–,no binding
